Test results: the DeepSol protein solubility set

Assay: soluble on expression in E. coli; label from the status in PepcDB or PDB records

For “MHVFYSEERRGNLLILREGEVKHFRVRRIEKDEEFGVIHEGKIYVCKVRREDKREISCEIVEELETKLPPKDITLYQSVTVDLKTMDTIVRQATELGVLTFVPIISERSFQKEEAILKKTEKWKRIVIEAMKQSRRPIPMEIKKPVRLSDLIPESEENIILDNFYEGVKPKDVNLEAKTYSVVVGPEGGFSKRESQILREKGFKSVLLEPYTLRTETAVVSIVSILMNFLEHHHHHH”, which “soluble on expression in E. coli” value is on record?
The value was “soluble”.

For “MHVLDLFKIEGKTAIVTGGGRGLGEQIAVGLAEAGANVVVCSRKVEACEQVKEKLEQLGVRSLALRCDVTNPEEVKHVVETTVKEFGGIDILVNNSGATWGAPVEEMPLEAWQKVINVNVTGTFLMSQAVGKVMIAKQTGGSIINIASVAGLGGTHPDILNTIGYNTSKGAVITFTRDLAAKWGKHGIRVNAVAPGFFPTKMSKVVLERVGKKVLEHTPLGRFGGEDDLKGAVLFLASPASAFVTGALLVVDGGSHATGI”, which “soluble on expression in E. coli” value is on record?
The value was “soluble”.

With “MIAGPLGRASELHRYEGNQTVVFCAGGVGLPPVYPIMREHLRLGNHVTLISGFRAKEFLFWTGDDERVGKLKKEFGDQLSLIYTTNDGSYGVKGFVTGPLEEMMKANQEGKGRSIAEVIAIGPPLMMRAVSDLTKPYGVKTVASLEHHHHHH” as the sequence, how does the “soluble on expression in E. coli” value read?
Its value is “not soluble”.

For “MIAHSVDDPFYYLHNFRQVVLWVEQRYQDLLDDQELAFIRAFSQLQAPAQALMVRMVMRKGELFRSDRLDYAEIGDTALALQPLLALGWVREPEQLDLEQLFALLRKEELARCFARQLNRPRAAKHELLAQLQPLALAARSLVEWFPDSDVRILQWCLQPLCDRIRLLFFGNLYQDWSDFVLADLGLLRYEQVPFSPDSRALQQRDDVDLAMALHHCAERLEQGGDPLPILATLQGLHSSNPWLARRHARLQFAVGQQCERLGEWDLATAVYAQCNHPQARIRQVRVLERSEQWHQAHARALQLAAAPANALEEQALQRMLPRLARKLGGPPQRRQRTTPLELIELELPRGDAALGVEEAVRQHLMQEGGQAHYVENTLFNSLFGLLCWEAIFAPVPGAFFNPFQAAPQDLHDSDFQQRRSALFERCLGRLDEGSHRQAILDCYVAKQGLQSPFVSWSMLSEELLEQALACLPAAALKQCFLRLLQDIRSNRAGMPDLIQFWPEQGRYRMVEVKGPGDRLQDNQLRWLAFCRQHGLPVAVCHVRWSET”, which “soluble on expression in E. coli” value is on record?
The value was “not soluble”.

With “MIAIVAGNSAGVSRVANQPLEHEPSYWAATAEIEQPSPALEHDLDVDVAIIGAGYTGLSTAYHLKKDHGITATVVEANRIGWGCSGRNGGFAMIGVGKDTYNAWISKVGLEQARKTFEFGRDAVRTLRTVLQENNINAASGNEGFLLTAHRRARISELIETQRQLKHYFGFDTEYLDAHDVRTHYLSGTQIFGALHYPEHFPIHPMRYAQGLGRRVRQLGVPIYENSPVNTWRRAGRLHELLTPRGVVRAKKVVIATNGYTPDGLHPIVRGRLMNVLSNIVVTAPLSEGQLAATRWQTHKMVVDTRNLRSYFRLLEDNRIMFGARGGISDTAASRATMKAWLLTQLAKQFPGLGAIGADYFWQGWVAIPRDKGPHIHVADNGSVAYWLGCTGTGVAMSTHAGKLLADSLATERRPDVPALVGAPLPRYEIPALRKLYQRAAYSYFYLKDEFLLEHHHHHH” as the sequence, how does the “soluble on expression in E. coli” value read?
The value was “not soluble”.

Which “soluble on expression in E. coli” value does the source give for “MIAQQFNRARHILRHNLVRPFYQPKFYLESGKLAGFEALLRWYDEDNQIQLPKLIINAFEDYSLASRLSEKMQLNIFKDMASWINQGLQLVPVSINAAPVEFLKDNYAELLLERLNQFEIPYHLIEIEITEHLLDDQGKNFISRALAKLKQNGIRIALDDFGTGHSSLTRLANLPVDCLKIDCDFVQRMEQEKFISALVQSVILMSNNLGIDVVAEGIESQEQLELLKQQGCEVGQGFLFSQA” here?
Its value is “not soluble”.

Which “soluble on expression in E. coli” value does the source give for “MIAVQRAVESRSIPPKAIVPVYVATSRMIQNNYSQPYGAERSNKVHYNRVDVGIPQKHVKGVVETNAYKPTHDKYFAAVALQKYDNKEQFKQQLNADLEKKTPGKREIFLFIHGYNNNFADGTFRTAQFTYDYSLNVVTVHYSWPSAGSVPLYIYDRDSANFARDGLIELLTLISETKADQISVIAHSMGNFVIMEAFRTLALQGKYKPIQRITSFLMAAPDIDIDVFERQLNDIKKLPQPTAILVSRADKALAVSGRLTGGHHRVGDGSDIEMLRKNGIAVLDFSNVDGGAHNVFASSPTLMALAREGSLASTIMQGTELSPSQALLADSSSVLEKTTHLILYTPLRLLSPLTRQ” here?
Its value is “not soluble”.
